Test results reported in article PMC4537474 (Protein & Cell, 2015).

B1: fabB_ec probe (dsDNA)
DNA 1: TCTATTAAATGGCTGATCGGACTTGTTCGGCGTACAAGTGTACGCTATTGTGCATTC
DNA 2: GAATGCACAATAGCGTACACTTGTACGCCGAACAAGTCCGATCAGCCATTTAATAGA
B2: fabA_she probe, biotinylated (dsDNA)
DNA 1: GACATTAATTAGCTGATCGGAGTTGTTTAGCTTACACGTGTTCGCTAATCTTGGCG
DNA 2: CGCCAAGATTAGCGAACACGTGTAAGCTAAACAACTCCGATCAGCTAATTAATGTC
B3: fabA_she probe (dsDNA)
DNA 1: GACATTAATTAGCTGATCGGAGTTGTTTAGCTTACACGTGTTCGCTAATCTTGGCG
DNA 2: CGCCAAGATTAGCGAACACGTGTAAGCTAAACAACTCCGATCAGCTAATTAATGTC
B4: Shewanella oneidensis FadR protein (natural protein, Shewanella oneidensis MR-1, UniProt Q8ED80 1-240, looked up)
chain: MIINAKGPASFAEKYIVRSIWENKFPPGSILPAERELSELIGVTRTTLREVLQRLARDGWLKIQHGKPTRVNNFWETSGLNILETIADLNPEGFPVLVDQLLSARTNVSAIYFRGALRNNPDTAMEVLAQIHQLEDTAESFAEYDYLLHHTLAFSSGNPLYVLILNGFKGLYSRVGRYYFSSSEARQLALNFYKELELLAKAKNYLDVPALMRTYGINSGKMWLQLRDDMPSSIAQQDSH
B5: fabA_ec probe (dsDNA)
DNA 1: TTTATTCCGAACTGATCGGACTTGTTCAGCGTACACGTGTTAGCTATCCTGCGTGC
DNA 2: GCACGCAGGATAGCTAACACGTGTACGCTGAACAAGTCCGATCAGTTCGGAATAAA

How the values were obtained:
FadR_ec [1] = biological target: T1, FadR_ec (Escherichia coli (K-12), UniProt P0A8V6 1-239); test: EMSA; 5 pmol protein, 0.2 pmol probe; EMSA: Roche binding buffer, 20 min, room temperature, 0.2 pmol DIG probe (10 uL in Fig. 6), 7% native PAGE; SPR: Biacore3000, 20 mM Tris-HCl pH 7.5, 200 mM NaCl
T1 sequence (P0A8V6 whole entry): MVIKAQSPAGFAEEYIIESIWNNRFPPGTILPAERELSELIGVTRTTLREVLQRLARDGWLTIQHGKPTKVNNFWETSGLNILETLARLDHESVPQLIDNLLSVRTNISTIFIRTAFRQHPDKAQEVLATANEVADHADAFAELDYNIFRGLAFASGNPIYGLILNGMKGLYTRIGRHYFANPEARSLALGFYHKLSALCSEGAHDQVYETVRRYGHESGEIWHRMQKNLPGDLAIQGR

FadR_she [2] = biological target: T2, FadR_she (Shewanella oneidensis, UniProt Q8ED80 1-240); test: as above
FadR_vc = FadR_vc (Vibrio cholerae, UniProt Q9KQU8 1-279); test: EMSA; 5 pmol protein; super-shifted band attributed to multimer; EMSA: Roche binding buffer, 20 min, room temperature, 0.2 pmol DIG probe (10 uL in Fig. 6), 7% native PAGE; SPR: Biacore3000, 20 mM Tris-HCl pH 7.5, 200 mM NaCl
Sequence of FadR_vc (Q9KQU8 whole entry): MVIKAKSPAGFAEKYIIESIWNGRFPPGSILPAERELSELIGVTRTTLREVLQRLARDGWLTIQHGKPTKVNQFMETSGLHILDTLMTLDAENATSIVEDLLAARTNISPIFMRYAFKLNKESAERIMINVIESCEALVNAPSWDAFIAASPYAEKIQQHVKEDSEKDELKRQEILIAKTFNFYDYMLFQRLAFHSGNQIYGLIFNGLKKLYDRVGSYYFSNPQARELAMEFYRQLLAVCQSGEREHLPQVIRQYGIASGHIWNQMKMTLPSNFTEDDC

FadR_she [3] = biological target: T2, FadR_she; test: SPR; 2:1 (FadR dimer per DNA); EMSA: Roche binding buffer, 20 min, room temperature, 0.2 pmol DIG probe (10 uL in Fig. 6), 7% native PAGE; SPR: Biacore3000, 20 mM Tris-HCl pH 7.5, 200 mM NaCl
FadR_ec [4] = biological target: T1, FadR_ec; test: EMSA; C10:0-CoA ~50 pmol; EMSA: Roche binding buffer, 20 min, room temperature, 0.2 pmol DIG probe (10 uL in Fig. 6), 7% native PAGE; SPR: Biacore3000, 20 mM Tris-HCl pH 7.5, 200 mM NaCl
[5] = biological target: the molecule itself; test: SEC; Superdex 75 column on an Akta FPLC, 0.35 mL/min, 20 mmol/L Tris-HCl, 50 mmol/L NaCl, pH 7.9; peak at 10.5 mL, between the 44 kDa and 67 kDa standards

Row | Binder | binding result (FadR_ec [1]) | binding result (FadR_she [2]) | binding result (FadR_vc) | further results
1 | B1 | binds | binds | binds | –
2 | B2 | – | – | – | Kd (FadR_she [3]): ~436 nM
3 | B3 | – | – | – | binding result (FadR_ec [4]): binds
4 | B4 | – | – | – | stoichiometry N [5]: 2
5 | B5 | binds | binds | binds | –
